Bounds are passed on as bounds.

Results on 18 molecules are retold here after US20110038881A1, “PROGNOSTIC ASSAY FOR DETERMINING T CELL RESPONSE TO HLA ANTIGENS AND USE THEREOF IN FIELD OF TISSUE TRANSPLANTATION” (priority 2007, published 2011).

B1: p43 (peptide)
chain: LTWQRDGEDQTQDTE
B2: p17* (peptide)
chain: HTVQRMYGCDVGSDW
B3: p22 (peptide)
chain: RGYHQYAYDGKDYIA
B4: p15* (peptide)
chain: GTLRGYYNQSEAGSH
B5: p50* (peptide)
chain: KPLTLRWEPSSQPTI
B6: p11 (peptide)
chain: PEYWDGETRKVKAHS
B7: p5 (peptide)
chain: IAVGYVDDTQFVRFD
B8: p6 (peptide)
chain: VGYVDDTQFVRFDSD
B9: p13* (peptide)
chain: HRVDLGTLRGYYNQS
B10: p28 (peptide)
chain: RSWTAADMAAQTTKH
B11: p12 (peptide)
chain: RKVKAHSQTHRVDLG
B12: p3 (peptide)
chain: TSVSRPGRGEPRFIA
B13: p16* (peptide)
chain: RGYYNQSEAGSHTVQ
B14: p19 (peptide)
chain: CDVGSDWRFLRGYHQ
B15: p23 (peptide)
chain: HQYAYDGKDYIALKE
B16: p2* (peptide)
chain: MRYFFTSVSRPGRGE
B17: p10 (peptide)
chain: APWIEQEGPEYWDGE
B18: p4 (peptide)
chain: PRFIAVGYVDDTQFV

The target in one assay is HLA-DRB1*1501 (human). As to the kind of experiment: competition binding. The note with it: modification not given.
Regarding B1, the IC50 (usually the concentration at which inhibition is half-maximal) was more than 100 µM.
B2 gave an IC50 of 2.83 µM.
For the molecule B3, the IC50 is more than 100 µM.
Same read-out and setting: the same measure for B4: 0.033 µM.
The molecule B5 registered an IC50 of 5.61 µM.
Molecule B6 came in with an IC50 of more than 100 µM.
Still for that read-out and setting: the same measure for B7: 2.97 µM; for B8: 1.78 µM.
The molecule B9 came in with an IC50 of 0.088 µM.
B10 yielded an IC50 of more than 100 µM.
Molecule B11 yielded an IC50 of more than 100 µM.
B12 registered an IC50 of 18.7 µM. In other words, the double-digit micromolar range.
Same read-out and setting: for B13 the value was more than 100 µM; for B14, 0.598 µM; for B15, more than 100 µM.
B16 registered an IC50 of 1.17 µM.
The same measure, in the same setting: for B17 the value was 51.2 µM.

Another assay concerns the target HLA-DRB5*0101 (human). Kind of assay: competition binding. The note with it: modification not given.
In turn, B1 yielded a concentration for half-maximal inhibition (IC50) of 4.1 µM.
The molecule B2 gave an IC50 of 12 µM.
Still for that read-out and setting: for B3 the value was 40 µM; for B4, 0.612 µM; for B5, 45.8 µM.
In turn, B6 gave an IC50 of 24.4 µM.
On to B7, for which the IC50 was found to be 0.798 µM.
B8 returned an IC50 of 9.19 µM.
Consider B9, for which the IC50 came out at 12.4 µM.
Consider B10, for which the IC50 was 40.5 µM.
Still for that read-out and setting: the same measure for B11: 7.98 µM.
The same measure, in the same setting: for B12 the value was more than 100 µM; for B13, 0.175 µM.
On the same count and under the same terms, the same measure for B14: 0.033 µM; for B18: 0.755 µM; for B15: 1.5 µM.
Regarding B16, the IC50 worked out at 0.004 µM. This IC50 lies about 380-fold lower than the previous one.
Same read-out and setting: for B17 the value was 73.5 µM.

The target of another assay is HLA-DRB1*0401 (human). As to the kind of experiment: competition binding. The note with it: modification not given.
B1 came in with an IC50 of more than 100 µM.
B2 gave an IC50 of 2.12 µM. This counts as single-digit micromolar.
Still for that read-out and setting: the same measure for B3: 81.5 µM; for B4: 1.82 µM.
Same read-out and setting: for B5 the value was 0.134 µM; for B6, 63.2 µM; for B7, 31 µM.
Molecule B8 gave an IC50 of 97.5 µM. Against the preceding molecule, the IC50 is about 3.1-fold higher.
For the molecule B9, the IC50 stood at 4.04 µM.
For the molecule B10, the IC50 worked out at 1.53 µM. Against the preceding molecule, the IC50 is about 2.6-fold lower.
Same read-out and setting: for B11 the value was 100 µM; for B12, 5.48 µM; for B13, 0.494 µM.
The same measure, in the same setting: the same measure for B14: 0.543 µM; for B18: more than 100 µM; for B15: 17.7 µM.
For B17, the IC50 was more than 100 µM.

For another assay, the target named is HLA-DRB1*1301 (human). As to the kind of experiment: competition binding. The conditions noted are these: modification not given.
In the case of B1, the IC50 was more than 100 µM.
In turn, B2 showed an IC50 of more than 100 µM.
In turn, B3 had an IC50 of more than 100 µM.
Still for that read-out and setting: the same measure for B4: more than 100 µM.
B5 displayed an IC50 of more than 100 µM.
The molecule B6 showed an IC50 of more than 100 µM.
With B7, the IC50 is more than 100 µM.
The same measure, in the same setting: for B8 the value was more than 100 µM.
Still for that read-out and setting: for B9 the value was more than 100 µM.
B10 had an IC50 of more than 100 µM.
Molecule B11 showed an IC50 of 0.385 µM.
In the case of B12, the IC50 is more than 100 µM.
In turn, B13 had an IC50 of more than 100 µM.
Molecule B14 returned an IC50 of 100 µM.
Still for that read-out and setting: for B18 the value was more than 100 µM.
On the same count and under the same terms, the same measure for B15: more than 100 µM; for B16: 0.399 µM.
On to B17, for which the IC50 is more than 100 µM.

For another assay, the target named is HLA-DRB1*0301 (human). Kind of assay: competition binding. The note with it: modification not given.
The molecule B1 came in with an IC50 of 97.5 µM.
Take B2: the IC50 worked out at 5.61 µM.
On the same count and under the same terms, for B3 the value was 8.48 µM; for B4, more than 100 µM; for B5, more than 100 µM.
As for B6, the IC50 is more than 100 µM.
Still for that read-out and setting: for B7 the value was 0.316 µM; for B8, 0.6 µM; for B9, more than 100 µM.
B10 showed an IC50 of more than 100 µM.
On to B11, for which the IC50 is more than 100 µM.
Same read-out and setting: for B12 the value was more than 100 µM; for B13, more than 100 µM; for B14, 1.5 µM.
Molecule B18 gave an IC50 of 12 µM.
In turn, B15 registered a half-inhibitory concentration (IC50) of 52 µM. Compared with the last molecule, the IC50 is about 4.3-fold higher.
The same measure, in the same setting: the same measure for B16: 2.84 µM.
In turn, B17 registered an IC50 of 49.7 µM.

A further assay has as its target HLA-DRB4*0101 (human). Kind of assay: competition binding. The note with it: modification not given.
B3 came in with an IC50 of more than 100 µM.
The same measure, in the same setting: for B4 the value was more than 100 µM; for B5, 4.58 µM.
In turn, B6 yielded an IC50 of more than 100 µM.
Regarding B7, the IC50 is more than 100 µM.
Same read-out and setting: for B8 the value was 9 µM; for B9, 67.1 µM; for B11, 2.97 µM.
As for B12, the IC50 was more than 100 µM.
Molecule B13 had an IC50 of more than 100 µM.
In turn, B14 showed an IC50 of 51.4 µM.
Take B18: the IC50 came to 45.7 µM. This IC50 and that of the molecule before are within 1.5-fold of each other.
On the same count and under the same terms, for B15 the value was more than 100 µM.
Same read-out and setting: for B16 the value was more than 100 µM.
B17 displayed an IC50 of more than 100 µM.

A further assay has as its target HLA-DRB1*1101 (human). Kind of assay: competition binding. The note with it: modification not given.
For the molecule B1, the 50% inhibitory concentration (IC50) was more than 100 µM.
On the same count and under the same terms, the same measure for B2: 6.48 µM; for B3: 1.75 µM; for B4: 1.86 µM.
On the same count and under the same terms, the same measure for B5: 11.4 µM; for B6: 0.418 µM; for B7: 9.22 µM.
Same read-out and setting: the same measure for B8: 2.8 µM.
The molecule B9 gave an IC50 of 8.06 µM.
Same read-out and setting: the same measure for B10: 10.5 µM; for B11: more than 100 µM; for B12: 1.02 µM.
B13 showed an IC50 of 3.18 µM.
For B14, the IC50 came out at 0.029 µM.
The molecule B18 had an IC50 of 5.48 µM. Compared with the last molecule, the IC50 is about 190-fold higher.
Still for that read-out and setting: for B15 the value was 0.684 µM; for B16, 0.003 µM.
As to B17, the IC50 came out at 58.1 µM.

Another assay addresses HLA-DRB1*0101 (human). Kind of assay: competition binding. The note with it: modification not given.
The molecule B1 came in with an IC50 of more than 100 µM.
In the case of B2, the IC50 is 0.035 µM.
With B3, the IC50 came out at 9.49 µM.
Same read-out and setting: the same measure for B4: 0.406 µM.
The same measure, in the same setting: the same measure for B5: 0.458 µM; for B6: 4.95 µM; for B7: 2.77 µM.
For B8, the IC50 was determined as 27.7 µM.
The molecule B9 showed an IC50 of 0.089 µM.
Same read-out and setting: the same measure for B10: 0.067 µM.
Still for that read-out and setting: for B11 the value was 21.6 µM; for B12, 0.648 µM; for B14, 0.009 µM.
On the same count and under the same terms, for B18 the value was 0.748 µM.
On to B15, for which the IC50 was found to be 0.406 µM.
B16 came in with an IC50 of 0.002 µM.
In turn, B17 gave an IC50 of 13 µM.

The target in another assay is HLA-DRB3*0101 (human). As to the kind of experiment: competition binding. The conditions noted are these: modification not given.
As to B2, the IC50 was 0.529 µM.
On to B3, for which the IC50 was found to be 1.28 µM.
On the same count and under the same terms, the same measure for B4: more than 100 µM; for B5: 3.55 µM.
On the same count and under the same terms, for B6 the value was more than 100 µM.
On the same count and under the same terms, the same measure for B8: 0.245 µM; for B9: more than 100 µM; for B10: 1 µM.
B11 yielded an IC50 of more than 100 µM.
B12 had a half-inhibitory concentration (IC50) of more than 100 µM.
Molecule B13 showed an IC50 of more than 100 µM.
On the same count and under the same terms, the same measure for B14: more than 100 µM.
Still for that read-out and setting: for B18 the value was 0.196 µM; for B15, 2.29 µM.
The same measure, in the same setting: for B16 the value was more than 100 µM.
In the case of B17, the concentration for half-maximal inhibition (IC50) came to 75 µM.

The target of the next assay is HLA-DRB1*0701 (human). As to the kind of experiment: competition binding. The conditions noted are these: modification not given.
B1 showed an IC50 of more than 100 µM.
As to B2, the IC50 was found to be 1.59 µM. In other words, the single-digit micromolar range.
Same read-out and setting: for B3 the value was 33.4 µM; for B4, 2.96 µM.
On to B5, for which the IC50 amounted to 0.097 µM.
Same read-out and setting: for B6 the value was 62.9 µM; for B7, 3.1 µM; for B8, 3.16 µM.
B9 came in with an IC50 of 36.7 µM.
B10 had an IC50 of 12.8 µM.
Still for that read-out and setting: for B11 the value was 0.486 µM; for B12, 6.93 µM.
In turn, B13 returned an IC50 of 0.13 µM. Compared with the last molecule, the IC50 is about 53-fold lower.
B14 yielded an IC50 of 0.341 µM.
Still for that read-out and setting: for B18 the value was 0.85 µM.
B15: the IC50 was found to be 37.8 µM.
Still for that read-out and setting: for B16 the value was 0.045 µM; for B17, 79.4 µM.
